Consider eleven molecules from PMC5040251, “The Structure of Treponema pallidum Tp0751 (Pallilysin) Reveals a Non-canonical Lipocalin Fold That Mediates Adhesion to Extracellular Matrix Components and Interactions with Host Cells” (PLoS Pathogens, 2016).

For experiment [1], the system named is collagen type I. In words: Initial (single point) binding screen of Tp0751 peptide library to immobilized collagen type I. Particulars: immobilized human collagen type I; absorbance 600 nm, three wells, two independent experiments; Student's two-tailed t-test against non-binding peptides. The procedure:
(§1) Fig 3 Tp0751 lipocalin derived peptides directly bind host proteins. (A) Thirteen overlapping Tp0751 synthetic 24-mer peptides were evaluated for binding to immobilized fibrinogen, fibronectin, collagen type I, and collagen type IV. Average absorbance readings (600 nm) from three wells are presented with bars indicating standard error and the results are representative of two independent experiments. […] Average absorbance readings (600 nm) from three wells are presented with bars indicating standard error and the results are representative of two independent experiments. […] The strand colored in cyan reflects the overlap of p10 and p11. Color coded sequences of peptides p4, p6, p10, p10scr1, and p10scr2 are shown. Arginine residues in the p10 peptides are indicated by underlining.
(§2) Plasminogen-depleted human fibrinogen (Calbiochem) was purchased from VWR International. Laminin isolated from Engelbreth-Holm-Swarm murine sarcoma basement membrane and fibronectin isolated from human plasma were purchased from Sigma-Aldrich Canada Ltd. (Oakville, ON). Human collagen types I and IV (Rockland Immunochemicals, Inc.) were purchased from VWR International.
(§3) To test for binding of synthetic Tp0751 peptides p1-p13, p1scr, p6scr, p10scr1, and p10scr2 to the host proteins fibrinogen, fibronectin, laminin, collagen type I, and collagen type IV, initial binding assays were performed as described previously. For dose-dependent binding assays, recombinant proteins were serially diluted 1:2 from either 10 μM to 0.156 μm (Tp0751_78A used for crystallization and Tp0751_78 WT) or 40 μm to 0.625 μm (peptides p4, p6, p10, p11, p10scr1, and p10scr2). Average absorbance readings (600 nm) from three wells are presented with bars indicating standard error and the results are representative of two independent experiments. Plates were read at 600 nm with a BioTek enzyme-linked immunosorbent assay plate reader (Fisher Scientific, Ottawa, ON). All statistical analyses were performed using the Student’s two-tailed t-test. Non-linear regression curves were fitted and apparent dissociation constants (K d) were calculated using GraphPad Prism data analysis software (San Diego, CA).

For experiment [2], the target named is T1, fibrinogen (Homo sapiens, UniProt P02671+P02675+P02679).
T1 construct: purchased Calbiochem, purchased from VWR International
T1 sequence (P02671 20-629 limits assumed): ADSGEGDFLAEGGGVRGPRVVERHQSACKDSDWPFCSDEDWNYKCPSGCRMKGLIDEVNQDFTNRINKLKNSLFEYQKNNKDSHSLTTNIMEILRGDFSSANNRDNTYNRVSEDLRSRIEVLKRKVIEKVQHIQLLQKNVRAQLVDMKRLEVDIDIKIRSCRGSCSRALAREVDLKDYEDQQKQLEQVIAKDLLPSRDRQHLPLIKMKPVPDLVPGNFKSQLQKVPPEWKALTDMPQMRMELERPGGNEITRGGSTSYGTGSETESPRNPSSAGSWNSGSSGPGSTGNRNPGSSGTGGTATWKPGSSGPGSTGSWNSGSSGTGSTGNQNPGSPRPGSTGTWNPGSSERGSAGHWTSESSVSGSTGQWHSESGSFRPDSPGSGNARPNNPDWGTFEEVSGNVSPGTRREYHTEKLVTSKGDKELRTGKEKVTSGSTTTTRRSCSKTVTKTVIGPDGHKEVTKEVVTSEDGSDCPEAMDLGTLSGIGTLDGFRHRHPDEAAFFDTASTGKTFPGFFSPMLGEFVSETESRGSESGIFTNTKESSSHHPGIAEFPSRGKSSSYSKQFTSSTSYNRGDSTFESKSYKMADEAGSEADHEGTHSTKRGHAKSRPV
T1 sequence (P02675 31-491): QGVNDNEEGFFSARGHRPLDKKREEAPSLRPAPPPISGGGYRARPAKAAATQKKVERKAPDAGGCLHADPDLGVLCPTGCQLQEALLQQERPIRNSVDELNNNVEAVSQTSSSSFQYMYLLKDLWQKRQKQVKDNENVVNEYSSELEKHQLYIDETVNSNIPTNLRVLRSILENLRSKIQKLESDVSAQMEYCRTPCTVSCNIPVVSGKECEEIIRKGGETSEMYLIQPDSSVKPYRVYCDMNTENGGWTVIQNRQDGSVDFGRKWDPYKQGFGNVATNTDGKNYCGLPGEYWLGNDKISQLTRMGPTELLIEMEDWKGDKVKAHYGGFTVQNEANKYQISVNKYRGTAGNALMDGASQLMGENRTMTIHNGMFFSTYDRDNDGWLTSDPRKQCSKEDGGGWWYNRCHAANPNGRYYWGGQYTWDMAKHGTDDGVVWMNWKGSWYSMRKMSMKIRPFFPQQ
T1 sequence (P02679 27-433 limits assumed): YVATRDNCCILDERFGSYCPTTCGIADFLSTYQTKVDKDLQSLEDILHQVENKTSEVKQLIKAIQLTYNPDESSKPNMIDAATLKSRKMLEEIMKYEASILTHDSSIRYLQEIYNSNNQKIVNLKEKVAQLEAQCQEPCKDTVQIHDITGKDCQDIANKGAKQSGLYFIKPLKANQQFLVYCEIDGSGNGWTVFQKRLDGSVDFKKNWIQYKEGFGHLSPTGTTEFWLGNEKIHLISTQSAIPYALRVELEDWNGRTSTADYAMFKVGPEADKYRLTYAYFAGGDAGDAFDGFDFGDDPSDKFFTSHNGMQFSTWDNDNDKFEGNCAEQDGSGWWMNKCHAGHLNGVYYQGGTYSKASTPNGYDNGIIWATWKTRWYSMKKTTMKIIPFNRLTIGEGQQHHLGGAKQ
In words: Initial (single point) binding screen of Tp0751 peptide library to immobilized fibrinogen. The note with it: absorbance 600 nm, three wells, two independent experiments, Student's two-tailed t-test against non-binding peptides. The procedure: as §1, §2, §3

In experiment [3] the target is fibronectin. The experiment can be described thus: Dose-dependent binding assay to immobilized fibronectin. The note with it: plate binding to immobilized human plasma fibronectin; peptides serially diluted 1:2 from 40 to 0.625; absorbance 600 nm, three wells, representative of two independent experiments; non-linear regression, GraphPad Prism; read-out: Apparent Kd (Fn). The procedure:
as §1, §2, §3

The test system of experiment [4] is collagen type IV. In words: Initial (single point) binding screen of Tp0751 peptide library to immobilized collagen type IV. Particulars: immobilized human collagen type IV; absorbance 600 nm, three wells, two independent experiments; Student's two-tailed t-test against non-binding peptides. The procedure:
as §1, §2, §3

Experiment [5] has as its system fibronectin. In words: Initial (single point) binding screen of Tp0751 peptide library to immobilized fibronectin. On the set-up: species or system human. The note with it: absorbance 600 nm, three wells, two independent experiments, Student's two-tailed t-test against non-binding peptides. The procedure:
as §1, §2, §3

In experiment [6] the target is fibronectin isolated from human plasma (human). The experiment can be described thus: ELISA; dose-dependent plate binding assay on immobilised fibrinogen or fibronectin; His6-tagged synthetic peptides serially diluted 1:2 from 40 μM to 0.625 μM; absorbance at 600 nm; apparent Kd by non-linear regression (GraphPad Prism). A general note: In an ELISA, binding on a coated surface is turned into a signal by an enzyme label.

Experiment [7] deals with T2, plasminogen-depleted human fibrinogen (human, UniProt P02671-2 20-644; P02675 31-491; P02679-2 27-437).
T2 construct: fibrinogen alpha chain, human; fibrinogen beta chain, human; fibrinogen gamma chain, human; also called Fg; source: bought: Calbiochem (through VWR International)
T2 sequence (looked up) 1: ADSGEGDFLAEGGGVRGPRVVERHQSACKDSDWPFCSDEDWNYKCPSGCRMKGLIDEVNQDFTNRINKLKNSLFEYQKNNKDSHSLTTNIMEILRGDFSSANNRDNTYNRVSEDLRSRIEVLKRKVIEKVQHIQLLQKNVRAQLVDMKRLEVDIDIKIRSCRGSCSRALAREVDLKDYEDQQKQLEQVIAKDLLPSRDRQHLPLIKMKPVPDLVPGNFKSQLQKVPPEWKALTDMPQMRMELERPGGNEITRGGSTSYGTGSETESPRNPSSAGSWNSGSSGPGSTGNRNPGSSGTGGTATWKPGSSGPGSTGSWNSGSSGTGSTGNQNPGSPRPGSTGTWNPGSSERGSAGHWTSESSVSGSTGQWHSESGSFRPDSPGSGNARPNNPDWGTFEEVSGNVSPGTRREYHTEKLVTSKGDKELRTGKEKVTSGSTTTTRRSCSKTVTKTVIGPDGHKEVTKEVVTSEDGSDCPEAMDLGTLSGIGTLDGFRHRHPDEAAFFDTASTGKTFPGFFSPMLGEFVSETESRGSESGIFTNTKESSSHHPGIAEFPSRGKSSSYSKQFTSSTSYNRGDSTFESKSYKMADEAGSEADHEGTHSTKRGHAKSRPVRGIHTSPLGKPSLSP
T2 sequence (looked up) 2: T1 sequence (P02675 31-491)
T2 sequence (looked up) 3: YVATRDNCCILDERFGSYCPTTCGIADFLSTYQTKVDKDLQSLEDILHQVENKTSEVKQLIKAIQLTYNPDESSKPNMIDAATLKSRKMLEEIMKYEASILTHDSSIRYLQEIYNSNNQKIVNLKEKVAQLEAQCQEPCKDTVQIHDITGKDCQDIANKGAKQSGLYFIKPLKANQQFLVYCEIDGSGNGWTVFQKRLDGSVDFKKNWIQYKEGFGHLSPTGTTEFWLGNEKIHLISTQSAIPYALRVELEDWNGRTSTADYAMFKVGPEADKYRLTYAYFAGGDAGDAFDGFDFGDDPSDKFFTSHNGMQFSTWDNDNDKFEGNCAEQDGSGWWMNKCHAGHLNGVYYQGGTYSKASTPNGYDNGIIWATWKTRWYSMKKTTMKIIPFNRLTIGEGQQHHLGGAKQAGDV
The experiment can be described thus: ELISA; dose-dependent plate binding assay on immobilised fibrinogen; recombinant Tp0751 proteins serially diluted 1:2 from 10 μM to 0.156 μM; absorbance at 600 nm; apparent Kd by non-linear regression (GraphPad Prism). The note with it: both partners purified.

The target of experiment [8] is T2, plasminogen-depleted human fibrinogen. In words: ELISA; dose-dependent plate binding assay on immobilised fibrinogen or fibronectin; His6-tagged synthetic peptides serially diluted 1:2 from 40 μM to 0.625 μM; absorbance at 600 nm; apparent Kd by non-linear regression (GraphPad Prism). The note with it: both partners purified.

Positions count from the first letter of the chain named. Numbers in names are those of the source. Ends that are not written are not given here.

For “HHHHHHTSRVKLTISFERSLVNRTRTARFI [p10scr1]”, the “Binding to collagen I in initial binding screen” value in experiment [1] is recorded as “enhanced binding relative to p10”. Also, the “Binding to fibrinogen in initial binding screen” value in experiment [2] is listed as “enhanced binding relative to p10”. Further, in experiment [3], the Kd was found to be 1.3 ± 0.1 µM. In experiment [4], the “Binding to collagen IV in initial binding screen” value is recorded as “enhanced binding relative to p10”. Also, the “Binding to fibronectin in initial binding screen” value in experiment [5] is reported as “enhanced binding relative to p10”.
As for “Tp0751 synthetic peptide p4 (from UniProt O83732 88-111)”, the Kd in experiment [6] was found to be 2.4 µM.
Regarding “Tp0751 synthetic peptide p6 (from UniProt O83732 116-139)”, in experiment [6], the Kd was 4.5 µM.
For the molecule “Tp0751 synthetic peptide p11 (from UniProt O83732 186-209)”, the Kd in experiment [6] was 5.8 µM.

B1: Tp0751_78 WT (domain or fragment)
chain: SHGNAPPAPVGGAAQTHTQPPVQTAMRIALWNRATHGEQGALQHLLAGLWIQTEISPNSGDIHPLLFFDREHAEITFSRASVQEIFLVDSAHTHRKTVSFLTRNTAISSIRRRLEVTFESHEVIHVRAVEDVARLKIGSTSMWDGQYTRYHAGPASAPSP
notes: Tp0751 (pallilysin), Treponema pallidum subsp. pallidum, Ser78 to Pro237 (C-terminus), wild type at Glu199; The methods tell vector (modified pET28a, TEV-cleavable N-terminal His6), host strain and purification only for the E199A constructs; also called wild-type Tp0751_78 WT; source: E. coli, purified
Regarding B1, the Kd in experiment [7] turned out to be 6.1 ± 1.7 µM.

B2: Tp0751_78 E199A (Tp0751_78A) (domain or fragment, Treponema pallidum subsp. pallidum, UniProt O83732 78-237, looked up)
chain: B1 chain with E122A
notes: Tp0751 (pallilysin), Treponema pallidum subsp. pallidum, Ser78 to Pro237 (C-terminus), with E199A; The construct used for crystallization; also called pallilysin Ser78 to Pro237 E199A; not shown: His6, N-terminal, cleaved
For the molecule B2, the Kd in experiment [7] amounted to 2 ± 0.4 µM.

B3: Tp0751 synthetic peptide p6 (peptide)
peptide: QGALQHLLAGLWIQTEISPNSGDI
notes: Tp0751 (pallilysin), Treponema pallidum subsp. pallidum; its central four residues LWIQ (126-129) are printed; also called peptide 6; source: synthetic peptide; not shown: His6, N-terminal, kept
For B3, the Kd in experiment [8] turned out to be 10.5 ± 2 µM.

B4: Tp0751 synthetic peptide p10 (peptide)
peptide: RKTVSFLTRNTAISSIRRRLEVTF
notes: Tp0751 (pallilysin), Treponema pallidum subsp. pallidum; Its composition equals that of the printed scrambled peptide p10scr2; also called peptide 10; source: synthetic peptide; not shown: His6, N-terminal, kept
Take B4: the Kd in experiment [8] was determined as 1.6 ± 0.1 µM.
With VAREFNKSRTILFRTSVTRLSTRI [second scrambled version of Tp0751 peptide 10 (p10scr2)], the Kd in experiment [6] is 7.9 µM.

B5: Tp0751 synthetic peptide p4 (peptide)
peptide: GGAAQTHTQPPVQTAMRIALWNRA
notes: Tp0751 (pallilysin), Treponema pallidum subsp. pallidum; its central four residues PVQT (98-101) are printed; also called peptide 4; source: synthetic peptide; not shown: His6, N-terminal, kept
Regarding B5, in experiment [8], the Kd came to 6.9 ± 0.4 µM.

B6: Tp0751 synthetic peptide p11 (peptide)
peptide: SIRRRLEVTFESHEVIHVRAVEDV
notes: Tp0751 (pallilysin), Treponema pallidum subsp. pallidum; shares its first 10 residues (with the arginine triplet) with p10; source: synthetic peptide; not shown: His6, N-terminal, kept
Take B6: the Kd in experiment [8] was 9.2 ± 1 µM.
